This is an account of results in patent US20200040358A1 (published 2020).

T1: NY-ESO-1 peptide on HLA-B*07:02 (human)
T1 peptide: SLLMWITQC

T2: NY-ESO-1 peptide on HLA-A*02:01 (human)
T2 peptide: SLLMWITQC

T3: NY-ESO-1 peptide on HLA-A*02:01 (human (alpha3 domain mouse))
T3 peptide: SLLMWITQC

B1: TCR18168 (TCR, V domains shown)
Valpha: QSVAQPEDQVNVAEGNPLTVKCTYSVSGNPYLFWYVQYPNRGLQFLLKYITGDNLVKGSYGFEAEFNKSQTSFHLKKPSALVSDSALYFCAVRELYSGAGSYQLTFGKGTKLSVIP
Vbeta: QKPSRDICQRGTSLTIQCQVDSQVTMMFWYRQQPGQSLTLIATANQGSEATYESGFVIDKFPISRPNLTFSTLTVSNMSPEDSSIYLCSVGGAGVTDTQYFGPGTRLTVL
B2: TCR0036 (TCR, V domains shown)
Valpha: QSVAQPEDQVNVAEGNPLTVKCTYSVSGNPYLFWYVQYPNRGLQFLLKYITGDNLVKGSYGFEAEFNKSQTSFHLKKPSALVSDSALYFCAVRDLTTGAGSYQLTFGKGTKLSVIP
Vbeta: QKPSRDICQRGTSLTIQCQVDSQVTMMFWYRQQPGQSLTLIATANQGSEATYESGFVIDKFPISRPNLTFSTLTVSNMSPEDSSIYLCSVGGAGVTDTQYFGPGTRLTVL
B3: TCR0014 (TCR, V domains shown)
Valpha: QSVAQPEDQVNVAEGNPLTVKCTYSVSGNPYLFWYVQYPNRGLQFLLKYITGDNLVKGSYGFEAEFNKSQTSFHLKKPSALVSDSALYFCAVRDLFTGAGSYQLTFGKGTKLSVIP
Vbeta: QKPSRDICQRGTSLTIQCQVDSQVTMMFWYRQQPGQSLTLIATANQGSEATYESGFVIDKFPISRPNLTFSTLTVSNMSPEDSSIYLCSVGGAGVTDTQYFGPGTRLTVL
B4: TCR0032 (TCR, V domains shown)
Valpha: QSVAQPEDQVNVAEGNPLTVKCTYSVSGNPYLFWYVQYPNRGLQFLLKYITGDNLVKGSYGFEAEFNKSQTSFHLKKPSALVSDSALYFCAVRDLFCGAGSYQLTFGKGTKLSVIP
Vbeta: QKPSRDICQRGTSLTIQCQVDSQVTMMFWYRQQPGQSLTLIATANQGSEATYESGFVIDKFPISRPNLTFSTLTVSNMSPEDSSIYLCSVGGAGVTDTQYFGPGTRLTVL
B5: TCR0012 (TCR, V domains shown)
Valpha: QSVAQPEDQVNVAEGNPLTVKCTYSVSGNPYLFWYVQYPNRGLQFLLKYITGDNLVKGSYGFEAEFNKSQTSFHLKKPSALVSDSALYFCAVRGLLNGAGSYQLTFGKGTKLSVIP
Vbeta: QKPSRDICQRGTSLTIQCQVDSQVTMMFWYRQQPGQSLTLIATANQGSEATYESGFVIDKFPISRPNLTFSTLTVSNMSPEDSSIYLCSVGGAGVTDTQYFGPGTRLTVL
B6: TCR0030 (TCR, V domains shown)
Valpha: QSVAQPEDQVNVAEGNPLTVKCTYSVSGNPYLFWYVQYPNRGLQFLLKYITGDNLVKGSYGFEAEFNKSQTSFHLKKPSALVSDSALYFCAVRDSKAGAGSYQLTFGKGTKLSVIP
Vbeta: QKPSRDICQRGTSLTIQCQVDSQVTMMFWYRQQPGQSLTLIATANQGSEATYESGFVIDKFPISRPNLTFSTLTVSNMSPEDSSIYLCSVGGAGVTDTQYFGPGTRLTVL
B7: TCR0020 (TCR, V domains shown)
Valpha: QSVAQPEDQVNVAEGNPLTVKCTYSVSGNPYLFWYVQYPNRGLQFLLKYITGDNLVKGSYGFEAEFNKSQTSFHLKKPSALVSDSALYFCAVRSSYEGAGRYQLTFGKGTKLSVIP
Vbeta: QKPSRDICQRGTSLTIQCQVDSQVTMMFWYRQQPGQSLTLIATANQGSEATYESGFVIDKFPISRPNLTFSTLTVSNMSPEDSSIYLCSVGGAGVTDTQYFGPGTRLTVL
B8: TCR0060 (TCR, V domains shown)
Valpha: QSVAQPEDQVNVAEGNPLTVKCTYSVSGNPYLFWYVQYPNRGLQFLLKYITGDNLVKGSYGFEAEFNKSQTSFHLKKPSALVSDSALYFCAVRELYSRGVKWQLTFGKGTKLSVIP
Vbeta: QKPSRDICQRGTSLTIQCQVDSQVTMMFWYRQQPGQSLTLIATANQGSEATYESGFVIDKFPISRPNLTFSTLTVSNMSPEDSSIYLCSVGGAGVTDTQYFGPGTRLTVL
B9: TCR0022 (TCR, V domains shown)
Valpha: QSVAQPEDQVNVAEGNPLTVKCTYSVSGNPYLFWYVQYPNRGLQFLLKYITGDNLVKGSYGFEAEFNKSQTSFHLKKPSALVSDSALYFCAVRDDLVGAGSYQLTFGKGTKLSVIP
Vbeta: QKPSRDICQRGTSLTIQCQVDSQVTMMFWYRQQPGQSLTLIATANQGSEATYESGFVIDKFPISRPNLTFSTLTVSNMSPEDSSIYLCSVGGAGVTDTQYFGPGTRLTVL
B10: TCR0066 (TCR, V domains shown)
Valpha: QSVAQPEDQVNVAEGNPLTVKCTYSVSGNPYLFWYVQYPNRGLQFLLKYITGDNLVKGSYGFEAEFNKSQTSFHLKKPSALVSDSALYFCAVRELYSALVTYQLTFGKGTKLSVIP
Vbeta: QKPSRDICQRGTSLTIQCQVDSQVTMMFWYRQQPGQSLTLIATANQGSEATYESGFVIDKFPISRPNLTFSTLTVSNMSPEDSSIYLCSVGGAGVTDTQYFGPGTRLTVL
B11: TCR0010 (TCR, V domains shown)
Valpha: QSVAQPEDQVNVAEGNPLTVKCTYSVSGNPYLFWYVQYPNRGLQFLLKYITGDNLVKGSYGFEAEFNKSQTSFHLKKPSALVSDSALYFCAVRDSFEGAGSYQLTFGKGTKLSVIP
Vbeta: QKPSRDICQRGTSLTIQCQVDSQVTMMFWYRQQPGQSLTLIATANQGSEATYESGFVIDKFPISRPNLTFSTLTVSNMSPEDSSIYLCSVGGAGVTDTQYFGPGTRLTVL
B12: TCR0062 (TCR, V domains shown)
Valpha: QSVAQPEDQVNVAEGNPLTVKCTYSVSGNPYLFWYVQYPNRGLQFLLKYITGDNLVKGSYGFEAEFNKSQTSFHLKKPSALVSDSALYFCAVRELYSTTFGWQLTFGKGTKLSVIP
Vbeta: QKPSRDICQRGTSLTIQCQVDSQVTMMFWYRQQPGQSLTLIATANQGSEATYESGFVIDKFPISRPNLTFSTLTVSNMSPEDSSIYLCSVGGAGVTDTQYFGPGTRLTVL
B13: TCR0028 (TCR, V domains shown)
Valpha: QSVAQPEDQVNVAEGNPLTVKCTYSVSGNPYLFWYVQYPNRGLQFLLKYITGDNLVKGSYGFEAEFNKSQTSFHLKKPSALVSDSALYFCAVRDMANGAGSYQLTFGKGTKLSVIP
Vbeta: QKPSRDICQRGTSLTIQCQVDSQVTMMFWYRQQPGQSLTLIATANQGSEATYESGFVIDKFPISRPNLTFSTLTVSNMSPEDSSIYLCSVGGAGVTDTQYFGPGTRLTVL
B14: TCR0018 (TCR, V domains shown)
Valpha: QSVAQPEDQVNVAEGNPLTVKCTYSVSGNPYLFWYVQYPNRGLQFLLKYITGDNLVKGSYGFEAEFNKSQTSFHLKKPSALVSDSALYFCAVRDLSDGAGSYQLTFGKGTKLSVIP
Vbeta: QKPSRDICQRGTSLTIQCQVDSQVTMMFWYRQQPGQSLTLIATANQGSEATYESGFVIDKFPISRPNLTFSTLTVSNMSPEDSSIYLCSVGGAGVTDTQYFGPGTRLTVL
B15: TCR0068 (TCR, V domains shown)
Valpha: QSVAQPEDQVNVAEGNPLTVKCTYSVSGNPYLFWYVQYPNRGLQFLLKYITGDNLVKGSYGFEAEFNKSQTSFHLKKPSALVSDSALYFCAVRELYSPRLMWQLTFGKGTKLSVIP
Vbeta: QKPSRDICQRGTSLTIQCQVDSQVTMMFWYRQQPGQSLTLIATANQGSEATYESGFVIDKFPISRPNLTFSTLTVSNMSPEDSSIYLCSVGGAGVTDTQYFGPGTRLTVL
B16: TCR0070 (TCR, V domains shown)
Valpha: QSVAQPEDQVNVAEGNPLTVKCTYSVSGNPYLFWYVQYPNRGLQFLLKYITGDNLVKGSYGFEAEFNKSQTSFHLKKPSALVSDSALYFCAVRELYSATVDYQLTFGKGTKLSVIP
Vbeta: QKPSRDICQRGTSLTIQCQVDSQVTMMFWYRQQPGQSLTLIATANQGSEATYESGFVIDKFPISRPNLTFSTLTVSNMSPEDSSIYLCSVGGAGVTDTQYFGPGTRLTVL
B17: TCR0024 (TCR, V domains shown)
Valpha: QSVAQPEDQVNVAEGNPLTVKCTYSVSGNPYLFWYVQYPNRGLQFLLKYITGDNLVKGSYGFEAEFNKSQTSFHLKKPSALVSDSALYFCAVRDQALGAGSYQLTFGKGTKLSVIP
Vbeta: QKPSRDICQRGTSLTIQCQVDSQVTMMFWYRQQPGQSLTLIATANQGSEATYESGFVIDKFPISRPNLTFSTLTVSNMSPEDSSIYLCSVGGAGVTDTQYFGPGTRLTVL
B18: TCR0050 (TCR, V domains shown)
Valpha: QSVAQPEDQVNVAEGNPLTVKCTYSVSGNPYLFWYVQYPNRGLQFLLKYITGDNLVKGSYGFEAEFNKSQTSFHLKKPSALVSDSALYFCAVRELYSVAVRYQLTFGKGTKLSVIP
Vbeta: QKPSRDICQRGTSLTIQCQVDSQVTMMFWYRQQPGQSLTLIATANQGSEATYESGFVIDKFPISRPNLTFSTLTVSNMSPEDSSIYLCSVGGAGVTDTQYFGPGTRLTVL

One test has as its target T1, NY-ESO-1 peptide on HLA-B*07:02. As to the kind of experiment: cytokine release.
In the case of B1, the binding result was “no recognition”.

A further test deals with T2, NY-ESO-1 peptide on HLA-A*02:01. Kind of test: multimer staining.
For B1, the binding result is given as “recognises”. The same measure, in the same setting: in the case of B2 it was “recognises”; in that of B3, “recognises”; in that of B4, “recognises”.

Consider B5, for which the binding result was “recognises”. On the same count and under the same terms, in the case of B6 it was “recognises”; in that of B7, “recognises”.

As for B8, the binding result was “recognises”.

Take B9: the binding result was “recognises”. In the case of B10, the binding result is listed as “recognises”. As to B11, the binding result was “recognises”.

Take B12: the binding result is on record as “recognises”. On the same count and under the same terms, in the case of B13 it was “recognises”; in that of B14, “recognises”. On the same count and under the same terms, in the case of B15 it was “recognises”; in that of B16, “recognises”. As to B17, the binding result was “recognises”. Turning to B18, the binding result is “recognises”.

A further test has as its target T3, NY-ESO-1 peptide on HLA-A*02:01. Kind of test: activation reporter or marker.
As for B1, the binding result is “recognises”.
